Reference: the supplement of paper PMC10724198
± gives the standard deviation of the averaged measurements.

Test system: Saccharomyces cerevisiae
Experiment: protein stability index of tFT-peptide fusion (C-terminal peptide) (PSI (0-1 scale)); higher = more stable (slower turnover)
Settings: genetic background: wild type; temperature: 30 C
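Further: PSI is a weighted mean of sequencing reads over stability bins, variants kept only with over 10 reads, mCherry proximal and sfGFP distal, peptide attached via GGGS linker.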

Sequence	protein stability index
TCVRHKVQKSRE	0.688 ± 0.058
FSLPLCAITGPQ	0.702 ± 0.056
FRRSLILPLPPT	0.6814 ± 0.0037
SGPGGVGPTGGI	0.6585 ± 0.0055
SFPRPTSALSLN	0.604 ± 0.075
FCWCARPLSWYN	0.615 ± 0.027
MAIRSPACRLRF	0.674 ± 0.049
SPPLRPLSDLTP	0.692 ± 0.085
PRASDPPPSPYP	0.766 ± 0.057
DQVWGGSEDNTV	0.76 ± 0.052
ERMVENNVKGRK	0.6811 ± 0.0027
PSPPPSQSLPPP	0.717 ± 0.043
GGIQPEQYLNTL	0.688 ± 0.019
VLTVVRVGVGKQ	0.676 ± 0.051
FLSWGSGVFGLL	0.671 ± 0.056
FRYSSLPRPLVF	0.5893 ± 0.0029
SRVVSPLFNLCL	0.692 ± 0.018
LPSLLYIFPPLS	0.6975 ± 0.0068
LRGGGGIVVGVV	0.563 ± 0.012
RKNTSRESGLTR	0.632 ± 0.026
GENAIVEVWAGG	0.686 ± 0.022
VVLWSTGRVLYG	0.699 ± 0.025
AGTHRDLFQRWS	0.711 ± 0.046
GTLYLRVTSKEK	0.717 ± 0.044
SLSPTPVAPPLN	0.678 ± 0.009
VWGRRVMESHGE	0.628 ± 0.042

Sequence	protein stability index
GARGGGQSSFGE	0.666 ± 0.012
PPPPPPPAPPPC	0.7243 ± 0.0033
GPSIYGFEESFS	0.691 ± 0.0093
SPPPPLPPPLPP	0.52453 ± 0.00047
SHICSFLGICHA	0.576 ± 0.031
KQLEKRKRIIEE	0.7644 ± 0.0035
LWGVVVGELGSC	0.723 ± 0.074
CSPRPPPRSLHP	0.812 ± 0.024
PPPGPSRRPAAL	0.726 ± 0.017
SAPLLLPPLSSP	0.713 ± 0.023
KKKKHKAKGKIG	0.695 ± 0.049
TKKKNTKKNNNT	0.67 ± 0.095
CPHSLDTFVSKF	0.704 ± 0.066
RFVDLASFLTFR	0.587 ± 0.031
FFQSSLLFCPWR	0.712 ± 0.011
TVCGWSHLFVYN	0.669 ± 0.026
SGKGRRLVLGSS	0.6895 ± 0.0039
LRGVGGAGVFFG	0.675 ± 0.025
PAGILMQDSRRA	0.589 ± 0.051
ACPQPSPSPSQY	0.672 ± 0.048
NMCHVYTIIPSK	0.632 ± 0.024
RVEGGWGEAWRE	0.803 ± 0.075
HPLVASRLSPFP	0.761 ± 0.07
PSPPPPPSPSPP	0.626 ± 0.014
FGWVGYGCGVWW	0.741 ± 0.12
ECNESSACRNHY	0.65 ± 0.032

Sequence	protein stability index
LLPVFSYVPTFH	0.648 ± 0.047
FLPRLSASSSLC	0.728 ± 0.015
ATLIGIPPSLSA	0.6643 ± 0.00067
SVPPPLSPPPPP	0.668 ± 0.018
PPPPLPSFPSSS	0.858 ± 0.062
IFWLFLPSVPFL	0.702 ± 0.12
TPRSPFPPLPPP	0.698 ± 0.049
ISCVLSTVGVGH	0.663 ± 0.044
PRPPLPSLHLSP	0.679 ± 0.024
VFFLHGLVIYED	0.563 ± 0.069
VRNVVYWEFVVE	0.585 ± 0.063
VVSRTCVRWGLV	0.655 ± 0.039
SGSAPFLRTSKL	0.685 ± 0.061
ISIAATPHVSQP	0.661 ± 0.054
SLKIPSPLSPVL	0.699 ± 0.028
KEKKQARVKKKK	0.723 ± 0.022
PRLFLFRSSFPP	0.681 ± 0.048
VHGYVRLIWPTI	0.696 ± 0.053
LLPPFPPPSLFS	0.667 ± 0.01
RQRGNMEIRIRR	0.709 ± 0.027
DQDVPLWGLVSM	0.682 ± 0.054
WKQEKYTFKKRT	0.707 ± 0.032
RPLSDDTDCPCI	0.748 ± 0.13
NGGCCLVFRIEP	0.643 ± 0.029
RVSVRGLESGVC	0.665 ± 0.026
GRGSCVRISSEG	0.706 ± 0.028

Sequence	protein stability index
FVPFVLFLLRPL	0.582 ± 0.022
LFFGVACSWFSV	0.621 ± 0.013
LADFGREKNSLG	0.703 ± 0.0068
AQIGTKINTRKT	0.599 ± 0.04
SIKGLVRSIALN	0.638 ± 0.0064
HVPGGRADMTRS	0.706 ± 0.0097
IKCCIGCSSICG	0.692 ± 0.042
PQRPPPALACPP	0.703 ± 0.083
GPVTDWPLLLFK	0.5901 ± 0.0015
DVGRDVCEFRDR	0.677 ± 0.045
GSMVRSDSFLRP	0.66 ± 0.019
YKGYEIIGSVQG	0.72 ± 0.023
RLGIADHEYPCE	0.673 ± 0.011
PPRPTPYPPLPP	0.674 ± 0.062
DRPPPPPRSSPL	0.753 ± 0.046
ELLKQRTRKRQK	0.693 ± 0.021
KKKHKKKKKKKE	0.676 ± 0.073
SLSRPASPPPHH	0.674 ± 0.12
AGVGPTHVRPPR	0.676 ± 0.0079
IGRRSRALKITE	0.629 ± 0.03
FGVVLVGAGWGG	0.67 ± 0.035
LDLAMRQYDLTG	0.681 ± 0.06
PPPPTPLPPPHD	0.652 ± 0.037
